B1: PLK2 (parent)
chain: MELLRTITYQPAASTKMCEQALGK

Variants of: B1
Test: protein stability index of a GFP-peptide fusion (GPS, HEK-293T) (PSI 1-6); higher = more stable
Settings: c terminus: a fixed tail appended
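Also: lentivirally expressed fusions sorted by FACS into six bins by GFP to DsRed ratio, PSI derived from sequencing read proportions per bin multiplied by bin number.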

Protein stability index of substitutions, site by site:
T15: R 1.44, W 3.77, P 1.58, N 2.46, Y 2.83, Q 2.87, S 2.41, V 1.54, M 2.87
M17: G 1.53, W 2.46, A 2.37, V 2.98, Y 1.8, C 2.07, E 1.86, T 2.74, L 2.84, Q 2.65, F 1.52, N 2.19, S 2.33, D 2.02, P 2.04, K 2.98, I 2.18, H 2.26, R 2.68
E19: K 2.63, F 2.15, Y 2.82, R 2.59, H 2.09, S 1.38, I 2.42, D 2.27, G 2.87, A 2.59, T 2.84, V 2.46, P 3.73, N 2.28, C 2.09, L 2.52, Q 1.52
K16: A 2.13, S 2.34, E 2.18, M 1.85, L 1.84, T 2.55, W 2.05, C 2.95, Q 2.22, N 2.01, I 2.61, D 2.38, F 1.83, H 1.76, V 1.96, R 2.07, Y 3.02, P 2.02, G 1.81
K24: E 1.41, G 1.65, C 2.46, F 3.31, D 2.73, I 3.23, A 2.89, H 3.08
Q20: D 1.95, L 2.38, V 1.6, R 2.71, M 3.03, I 2.18, P 2.62, S 1.75, F 2.08, N 1.69, A 2.63, C 3.11, T 3.59, H 2.51, Y 2.58, G 2.7, K 2.22, E 1.78, W 2.02
G23: I 1.97, S 3.38, D 1.93, R 1.34, M 2.28, W 3.02, N 2.37, K 2.94, P 2.27, L 3.53, Q 1.87, H 2.88, C 2.96, E 2.22, F 2.36, Y 1.9, A 2.64, V 1.97, T 1.46
C18: R 2.85, K 1.61, D 1.94, G 3, W 2.17, P 3.07, M 2.67, E 1.96, T 2.67, S 2.81, H 2.34, Q 1.57, Y 1.01, V 2.26, N 1.95, L 2.71, I 2.49, F 2.19, A 3.42
L22: C 2.54, Y 2.79, F 2.92, K 1.66, P 1.79, V 2.82, N 2.31, G 3.33, H 3.36, M 1.57, Q 2.02, I 2.42, E 2.21, W 2.86, A 2.29, D 1.87, T 2.43, R 1.89, S 1.52
A21: Q 2.98, Y 2.16, D 2.17, P 2.28, L 2.7, G 2.42, R 2.69, V 2.5, K 1.51, E 2.46, N 2.22, H 1.94, C 2.68, M 2.21, F 1.94, I 3.11, W 3.26, T 2.79, S 2
